Data on two substances can be found in paper PMC7896290.

Test [1] addresses anti-DNP wild-type human monoclonal IgG1 (human). The test is described as follows: native MS.
The target of test [2] is anti-DNP IgG1-RGY (human IgG1 with E345R, E430G, S440Y) (human). The test is described as follows: high-speed atomic force microscopy.
Test [3] has as its target human monoclonal IgG2 (human). The test is described as follows: native MS.
The target in test [4] is human monoclonal IgG4 (human). The test is described as follows: native MS.

As to “SpA-B domain wild type (single B-domain of staphylococcal protein A) (domain or fragment)”, the stoichiometry N (SpA-B per IgG) in test [1] stood at 2. Moreover, the reduction of IgG1-RGY hexamers in test [2] was determined as 50%.
Consider “staphylococcal protein A, soluble construct containing all five Ig-binding domains (domain or fragment)”, for which the stoichiometry N in test [3], in test [1] and in test [4] was 1 SpA per IgG throughout.

The stoichiometry N is a count of units in the complex or per binding partner.
